We go through 5 molecules from publication PMC11229321 (Nucleic Acids Research, 2024).

The target in one series is YejK(Δ134–147) (E. coli) (UniProt P33920). In words: SEC. For orientation: Size exclusion chromatography separates by hydrodynamic size, large species first.
The series “SEC” concerns the molecule itself. In words: SEC.
The series “cross-linking” deals with the molecule itself. Nature of the series: cross-linking.
A further series addresses T1, YejK (Escherichia coli, UniProt P33920 1-335).
T1 sequence: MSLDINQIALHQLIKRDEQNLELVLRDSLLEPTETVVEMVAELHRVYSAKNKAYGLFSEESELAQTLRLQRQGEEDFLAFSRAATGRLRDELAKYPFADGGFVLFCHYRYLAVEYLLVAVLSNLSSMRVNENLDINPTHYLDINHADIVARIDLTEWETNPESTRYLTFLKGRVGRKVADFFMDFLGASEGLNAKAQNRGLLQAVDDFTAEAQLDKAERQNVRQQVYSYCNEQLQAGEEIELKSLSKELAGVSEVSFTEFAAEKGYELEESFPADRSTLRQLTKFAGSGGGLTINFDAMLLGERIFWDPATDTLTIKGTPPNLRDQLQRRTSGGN
In words: fluorescence polarization.

For a further series, the target named is T2, YejK(R276A-R280A-K284A) (Escherichia coli, UniProt P33920 1-335, R276A;R280A;K284A).
T2 sequence: T1 sequence with R276A, R280A, K284A
In words: fluorescence polarization. On the technique in general: Polarisation of emitted light reports the rotation of a fluorescent probe.

Series [1] deals with T3, YejK C-trunc, YejK(1-290) (Escherichia coli, UniProt P33920 1-290, del291-335).
T3 sequence: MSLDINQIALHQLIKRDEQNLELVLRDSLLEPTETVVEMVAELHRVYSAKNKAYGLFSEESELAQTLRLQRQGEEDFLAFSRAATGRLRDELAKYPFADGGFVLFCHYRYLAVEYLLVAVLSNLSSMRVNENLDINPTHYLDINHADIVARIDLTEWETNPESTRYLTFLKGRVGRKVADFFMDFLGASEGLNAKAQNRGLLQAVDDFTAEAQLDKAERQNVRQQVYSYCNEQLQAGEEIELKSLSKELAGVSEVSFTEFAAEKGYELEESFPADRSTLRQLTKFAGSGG
In words: fluorescence polarization.

Positions count from the first letter of the chain named. Names and notes keep the numbering of the source.

As a reminder, the stoichiometry N is the number of molecules, sites or subunits per partner or assembly. Consider “YejK(Δ134–147) (from UniProt P33920 1-335) (natural protein)”, for which, in the series with YejK(Δ134–147) (E. coli), the stoichiometry N is 2.

B1: E. coli YejK protein (WT) (natural protein, UniProt P33920 1-335, looked up)
chain: T1 sequence
As to B1, the “stoichiometry N” value in the series “SEC” was 2.

B2: YejK(R276A-R280A-K284A) (natural protein, E. coli, UniProt P33920 1-335, looked up)
chain: T1 sequence with R276A, R280A, K284A
As to B2, in the series “cross-linking”, the “stoichiometry N” value amounted to 2.

B3: YejK(R173A-R176A-K177A) (natural protein, E. coli, UniProt P33920 1-335, looked up)
chain: T1 sequence with R173A, R176A, K177A
With B3, in “cross-linking”, the “stoichiometry N” value was 2.

B4: AT-rich 20-mer (dsDNA)
DNA 1: ATTATTAATTAATTAATAAT
DNA 2: ATTATTAATTAATTAATAAT
As usually defined, the Kd is the equilibrium constant for the complex coming apart. Lower therefore signals tighter binding. As to B4, the Kd in the series with YejK was 6.8 ± 0.5 µM; in the series with YejK(R276A-R280A-K284A) it was 40 ± 5.6 µM. Besides, the binding result in series [1] is “no binding”.
